Results from PMC5316894, “Cationic amino acid transporters play key roles in the survival and transmission of apicomplexan parasites” (Nature Communications, 2017).

Assays:
Assay in all cases: cells, lysate or membranes
[1] = substrate: N=C(N)NCCC[C@H](N)C(=O)O; format: cell-based, Toxoplasma gondii; conditions: ND96, pH 7.4, 0-1 mM arginine, labelled compound, Figure 3 legend prints 88±16
[2] = substrate: NCCCC[C@H](N)C(=O)O; format: cell-based, Plasmodium berghei; conditions: ND96, pH 7.4, 500 μM unlabelled methionine present to lower background, labelled compound
[3] = substrate: N=C(N)NCCC[C@H](N)C(=O)O; format: cell-based, Plasmodium berghei; conditions: ND96, pH 7.4, 125 μM unlabelled methionine present to lower background, labelled compound

B1: TgNPT1 (TgNPT1-HA) (Toxoplasma gondii ME49) (protein)
chain: MAGLLSSCCGRVYALLPDSAHPSAQQKTPFGVNRYVLLVIYMIYALLTSSVYFGWRSMSAMLFKSGQFSWVCTGESADTSPEEGETDYLCALQDTKVQSLFTIAMACHFTCSAVAGYLLDTVGPKAVALLGQTFNALAWILLAFSGPNFRSVYPAFVFMGAGADVSVYPTLLIVNLFPGSTALIMATLGACISLSFFVPLVLRTMWESTGISFEAVCIGYAVAGPILCAVVAFFFIPFKAFKGVDNFSACVEAEKLANSPTAQSSPKAVDSPPCDEGASSRGRLAVSHNTERTAPDDEQEKDNTERISLSDLACDPRFKKQKVSFSSQAFTFLYFGICLYFTVCGWVMAYYQEAAGRFLCNDAEYTLEILTPLSTIPCLLFGVVINRIGIMPVILMLNTIGLLTYVCVVAAESVVAQYFSVIFFFMYISIFTTQMYVFVESTFDSAHFGKLIGVASLIGGLLSLISNVLYGDVTVGMLNGDTRPVVIALLAVIILMYPILLAMRTKRNRKKQMEQEDIRSRVLELKAAHAADAA
notes: full ORF from RH cDNA, C-terminal HA tag, cRNA in Xenopus laevis oocytes (pGHJ-HA); calculated 58 kDa, runs at ~40 kDa in parasites; 12 predicted TM domains
Km [1]: 88 ± 15 µM

B2: PbNPT1 (PbNPT1-HA) (Plasmodium berghei ANKA) (protein)
chain: MNESNCTKIVNFLKGMRLKTNPNLPGAKQKTPLNIHRFYLLLIIIIYTATSACIYFDWTSIRNLLLNVGKYEHLNISKYADITLSPQYKKINNLYPMTLAIHFTMSVFCGFLYDHIGPKFTAIIGQGFNILSWIFLSIDTTKIDTTLIGFIFLGLGADTAFIPILTVSNLFPDISTFIMTVIGAAASLSYAVPATLNFVYKKYPHFPFYYICYGYIFIILIPCLLVATFLLPMKPFKGLDYYLENDQESDSKNKEQISYTDNDVEMQPSLIQNGNTNVSNNVNKNKATKNIIEGENFHKQSILLFFKVLLSYPSICIIVYFILFNISTVFYGMVTDIYFSYNKSIINIINILMPISFIPCIIFGRFINKYGAAIIIIIMNAFSALMHLTALIKHQAAGLISAFLYMCAASIYTSQIYCFLLNAFPSVVFGKLLGITSLFGGMFSLFCEKLYDNISNSSGNKNDPTTISILLAISFIIMFLPLSILYTRNYEKNIESVNSEKNQIQA
notes: full ORF, synthetic codon-harmonized gene, C-terminal HA tag, cRNA in Xenopus laevis oocytes (pGHJ-HA)
Km [2]: 130 ± 26 µM
Km [3]: 41 ± 9 µM
